Data from PMC7933982 (The Journal of Cell Biology, 2021).

Target: T1, GST-CBD (S. cerevisiae, UniProt P19524 1152-1574)
T1 sequence (looked up): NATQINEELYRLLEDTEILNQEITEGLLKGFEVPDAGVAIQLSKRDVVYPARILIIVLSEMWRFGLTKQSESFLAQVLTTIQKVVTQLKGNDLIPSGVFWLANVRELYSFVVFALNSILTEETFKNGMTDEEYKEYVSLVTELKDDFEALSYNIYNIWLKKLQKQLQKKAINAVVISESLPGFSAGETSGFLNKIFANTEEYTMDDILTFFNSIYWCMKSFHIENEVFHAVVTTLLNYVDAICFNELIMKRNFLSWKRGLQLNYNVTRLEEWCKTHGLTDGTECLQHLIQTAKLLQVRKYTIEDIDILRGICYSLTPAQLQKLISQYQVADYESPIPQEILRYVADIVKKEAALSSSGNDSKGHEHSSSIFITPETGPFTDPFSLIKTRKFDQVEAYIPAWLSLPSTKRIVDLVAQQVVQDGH
Experiment: pull-down

B1: 6xHis-Pea2_(221–350) (domain or fragment, S. cerevisiae, UniProt P40091 221-350, looked up)
chain: EKNTSSPPISPNAAAIQEEDSSKKLEELETAFSDLQLAHNFLTKQFENDRAEYVQDIEKLTRTNRELQDKLLNNHSNLSKTEKKLHELEQENKELEKANNKLNSSRHNFGMSSPASSPVTWDPSSPSSVG
- binding result: binds
